The values below come from PMC9035363.

As a reminder, the Kd is the free concentration of one partner at which half of the binding sites on the other are occupied at equilibrium, for simple one-to-one binding.

Test [1] deals with RBD N440D on yeast (SARS-CoV-2) (UniProt P0DTC2).
The target of test [2] is RBD-Fc D420N (SARS-CoV-2) (UniProt P0DTC2).
Test [3] has as its target RBD-Fc Y453F (SARS-CoV-2) (UniProt P0DTC2).
In test [4] the target is RBD-Fc L452R (SARS-CoV-2) (UniProt P0DTC2).
The target in test [5] is RBD-Fc K417E (SARS-CoV-2) (UniProt P0DTC2).
Test [6] addresses SARS-CoV-2 S S494P on CHO cells (SARS-CoV-2) (UniProt P0DTC2).
For test [7], the target named is RBD-Fc E484K (SARS-CoV-2) (UniProt P0DTC2).
The target in test [8] is SARS-CoV-2 S D614G on CHO cells (SARS-CoV-2) (UniProt P0DTC2).
The target is the same in test [9]. The source holds these as a separate data set.
For test [10], the target named is RBD-Fc K417T (SARS-CoV-2) (UniProt P0DTC2).
In test [11] the target is SARS-CoV-2 S S477N on CHO cells (SARS-CoV-2) (UniProt P0DTC2).
Test [12] has as its target RBD-Fc L452R (SARS-CoV-2) (UniProt P0DTC2). The source holds these as a separate data set.
For test [13], the target named is SARS-CoV-2 S N501Y on CHO cells (SARS-CoV-2) (UniProt P0DTC2).
Test [14] has as its target SARS-CoV-2 S S494P on CHO cells (SARS-CoV-2) (UniProt P0DTC2). This is another data set of the same source.
The target in test [15] is SARS-CoV-2 S N439K on CHO cells (SARS-CoV-2) (UniProt P0DTC2).
The target in test [16] is RBD-Fc K417N (SARS-CoV-2) (UniProt P0DTC2).
In test [17] the target is RBD-Fc N501Y (SARS-CoV-2) (UniProt P0DTC2). In words: SPR.
Test [18] concerns the target RBD-Fc F486I (SARS-CoV-2) (UniProt P0DTC2). In words: SPR.
The target in test [19] is RBD-Fc N460K (SARS-CoV-2) (UniProt P0DTC2). Put plainly: SPR. (In general: SPR reads the build-up and loss of mass on a sensor chip optically.)
Test [20] concerns the target RBD-Fc N439K (SARS-CoV-2) (UniProt P0DTC2). In words: SPR.
In test [21] the target is RBD-Fc E484D (SARS-CoV-2) (UniProt P0DTC2). In words: SPR.
The target of test [22] is RBD-Fc G476S (SARS-CoV-2) (UniProt P0DTC2). Put plainly: SPR.
Test [23] addresses RBD-Fc Y489H (SARS-CoV-2) (UniProt P0DTC2). Put plainly: SPR.
The target of test [24] is RBD-Fc N460T (SARS-CoV-2) (UniProt P0DTC2). Put plainly: SPR.
Test [25] has as its target RBD-Fc S494P (SARS-CoV-2) (UniProt P0DTC2). In words: SPR.
Test [26] has as its target RBD-Fc K417T (SARS-CoV-2) (UniProt P0DTC2). Put plainly: SPR.
In test [27] the target is RBD-Fc D420N (SARS-CoV-2) (UniProt P0DTC2). In words: SPR.
The target of test [28] is RBD-Fc Y453F (SARS-CoV-2) (UniProt P0DTC2). In words: SPR.
Test [29] has as its target RBD-Fc L452R (SARS-CoV-2) (UniProt P0DTC2). Put plainly: SPR.
In test [30] the target is RBD-Fc F486V (SARS-CoV-2) (UniProt P0DTC2). In words: SPR.
In test [31] the target is RBD-Fc K417E (SARS-CoV-2) (UniProt P0DTC2). Put plainly: SPR.
Test [32] deals with RBD-Fc N460S (SARS-CoV-2) (UniProt P0DTC2). In words: SPR.
Test [33] deals with RBD-Fc V483A (SARS-CoV-2) (UniProt P0DTC2). In words: SPR.
The target in test [34] is RBD-Fc E484Q (SARS-CoV-2) (UniProt P0DTC2). Put plainly: SPR.
For test [35], the target named is RBD-Fc F490S (SARS-CoV-2) (UniProt P0DTC2). Put plainly: SPR.
The target in test [36] is RBD-Fc S477N (SARS-CoV-2) (UniProt P0DTC2). In words: SPR.
The target of test [37] is RBD-Fc K417N (SARS-CoV-2) (UniProt P0DTC2). Put plainly: SPR.
For test [38], the target named is RBD-Fc E484K (SARS-CoV-2) (UniProt P0DTC2). Put plainly: SPR.

Regarding “LY-CoV1404 (bebtelovimab), full-length human IgG1 mAb (antibody)”, the pseudovirus (whole S) susceptibility IC50 in test [1] came out at 6 ng/mL; in test [2] it was 2 ng/mL; in test [3], 2 ng/mL; in [4] it was 2 ng/mL; in [5], 4 ng/mL; in test [7], 2 ng/mL. The substance also came in with a pseudovirus susceptibility IC50 in test [6] of 1 ng/mL. This substance gave a pseudovirus neutralisation (second system of Table 3D), IC50 in [8] of 3 ng/mL. Further, in test [9], the lentiviral pseudovirus neutralisation IC50 is 3 ng/mL. The lentiviral pseudovirus neutralisation IC90 in test [9] worked out at 10 ng/mL. In addition, the VSV pseudovirus (whole S) neutralisation IC50 in [10] was 2 ng/mL; in test [12], less than 1 ng/mL; in test [16], 2 ng/mL. Besides, the VSV pseudovirus neutralisation IC50 in [11] was determined as 5 ng/mL; in [13] it was 2 ng/mL; in test [14], 2 ng/mL; in [15], 2 ng/mL. For the same substance, the figures for the VSV pseudovirus neutralisation IC90 in [11], in test [13] and in [15] were 26 ng/mL, 7 ng/mL and 7 ng/mL, respectively. In test [12], this substance returned a lentiviral pseudovirus (whole S) neutralisation IC90 of 10 ng/mL.

On to LY-CoV1404 Fab (papain digestion), for which the Kd came to 2.9 nM in test [17]; 2.69 nM in test [18]; 3.4 nM in test [19]; 5.05 nM in test [20]; 3.37 nM in test [21]; 4.35 nM in [22]. Further, the Kd in test [23] turned out to be 3.06 nM; in test [24] it was 3.52 nM; in test [25], 3.46 nM; in test [26], 2.54 nM; in [27], 4.09 nM; in test [28], 3.28 nM. Besides, the Kd in test [29] came to 4.94 nM; in [30] it was 2.82 nM; in [31], 2.59 nM; in test [32], 2.6 nM; in test [33], 3.29 nM; in test [34], 3.74 nM. The Kd turned out to be 2.99 nM in [35], 3.45 nM in test [36], 3.08 nM in test [37] and 3.19 nM in [38].
